Source: US8092810B2, “Use of polypeptides having antimicrobial activity” (Novozymes A/S, priority 2006, dated 2012)

Experiments:
[1] = test system: Bacillus cereus ATCC 4342; assay: MBC determination; assay type: cell-based; settings: concentration that kills 99.9%
Procedure: Minimal inhibitory concentrations (MIC) and minimal bactericidal concentrations (MBC) were determined by broth microdilution in MHB as described by the NCCLS (National Committee for Clinical Laboratory Standards, in: Methods for Determining Bactericidal Activity of Antimicrobial Agents; Approved Guideline. National Committee for Clinical Laboratory Standards (M26-A), Vol. 19, 1999).
Briefly, the MIC was determined by microbroth dilution assay in a 96 well plate. 4-5 colonies of each bacterium tested were added to 5 ml of MHB, placed in a 35° C. shaker until the OD 600 nm reached 0.08-0.10. […] MICs were determined after 24 hours incubation and defined by the well containing the lowest amount of antibiotic with no visible growth.
To determine the MBC, 10 microliters from each well with no growth was plated in duplicate and allowed to grow overnight on Mueller-Hinton agar (Difco Catalog number 225250, Becton Dickinson and Company, Sparks, Md., US; 2.0 g beef extract powder, 17.5 g acid digest of casein, 1.5 g starch, 17 g agar—per 1000 ml of water). The MBC is based on the inoculum concentration, which was determined by plating in duplicate 50 microliters of 10^−2, 10^−3, and 10^−4 of the inoculum used for MICs. MBCs were determined as described by the NCCLS guidelines (cited above). […]

[2] = Thermostability by Differential Scanning calorimetry (DSC); assay type: physicochemical
Procedure: Differential Scanning calorimetry (DSC) was used to determine temperature stability of the Lento protein at pH 2.5, 4.0 and 7.0. Purified Lento in a concentration of about 2 mg/ml was dialysed over night at 4° C. against appropriate buffer and run on a VP-DSC instrument (MicroCal) with a constant scan rate of 1.5° C./min from 20 to 90° C. Data-handling was performed using the MicroCal Origin software (version 4.10), and denaturation temperature was defined as temperature at the apex of the enthalpy peak. […] In 10 mM sodium acetate, 50 mM NaCl, pH 4.0, Lento denatured at 69° C., and in 10 mM sodium phosphate, 50 mM NaCl, pH 7.0 the denaturation temperature was 60° C.

[3] = test system: gram-negative bacterial strains; assay: MIC assay, summary over gram-negative strains; assay type: cell-based; settings: gram-negative bacterial strains of Table 1
Procedure: (§1) Briefly, the MIC was determined by microbroth dilution assay in a 96 well plate. 4-5 colonies of each bacterium tested were added to 5 ml of MHB, placed in a 35° C. shaker until the OD 600 nm reached 0.08-0.10. The inoculum was diluted 1:100 and 50 microliters were added to each well which contained 50 microliters of serial two fold dilutions of Lento, vancomycin or ciprofloxacin. Each concentration of antibiotic or Lento was tested in duplicate. The plate was placed at 35° C. overnight. MICs were determined after 24 hours incubation and defined by the well containing the lowest amount of antibiotic with no visible growth.

[4] = test system: gram-positive bacterial strains; assay: MIC assay, summary over gram-positive strains; assay type: cell-based; settings: a number of gram-positive strains, with the exception of certain strains of Staphylococcus
Procedure: as §1

[5] = test system: Burkholderia cepacia ATCC 25416; assay: MIC broth microdilution; assay type: cell-based; settings: Burkholderia cepacia ATCC 25416, Gram −; MHB, 35° C., 24 hours
[6] = test system: all bacteria tested (Table 2); assay: MBC versus MIC, bactericidal classification; assay type: cell-based; settings: all bacteria tested with the exception of E. faecium ATCC 51559
Procedure: To determine the MBC, 10 microliters from each well with no growth was plated in duplicate and allowed to grow overnight on Mueller-Hinton agar (Difco Catalog number 225250, Becton Dickinson and Company, Sparks, Md., US; 2.0 g beef extract powder, 17.5 g acid digest of casein, 1.5 g starch, 17 g agar—per 1000 ml of water). The MBC is based on the inoculum concentration, which was determined by plating in duplicate 50 microliters of 10^−2, 10^−3, and 10^−4 of the inoculum used for MICs. MBCs were determined as described by the NCCLS guidelines (cited above). The MBC is the concentration of the tested compound that kills 99.9% of the microorganism inoculated into the well.
Based on this definition, Lento is bactericidal against all bacteria tested with the exception of E. faecium ATCC 51559.

[7] = test system: Staphylococcus epidermidis ATCC 12228; assay: MIC broth microdilution; assay type: cell-based; settings: Staphylococcus epidermidis ATCC 12228, Gram +; MHB, 35° C., 24 hours
Procedure: as §1

[8] = test system: Corynebacterium jeikeium ATCC 43734; assay: MIC broth microdilution; assay type: cell-based; settings: Corynebacterium jeikeium ATCC 43734, Gram +; MHB, 35° C., 24 hours
Procedure: as §1

[9] = test system: Enterococcus faecium ATCC 51559; assay: MIC broth microdilution; assay type: cell-based
Procedure: as §1

[10] = test system: Corynebacterium jeikeium ATCC 43216; assay: MIC broth microdilution; assay type: cell-based; settings: Corynebacterium jeikeium ATCC 43216, Gram +; MHB, 35° C., 24 hours
Procedure: as §1

[11] = test system: Staphylococcus aureus ATCC 29737; assay: MIC broth microdilution; assay type: cell-based
Procedure: as §1

[12] = test system: Shigella dysenteriae ATCC 11835; assay: MIC broth microdilution; assay type: cell-based; settings: Shigella dysenteriae ATCC 11835, Gram −; MHB, 35° C., 24 hours
Procedure: as §1

[13] = test system: Bacillus cereus ATCC 4342; assay: MIC broth microdilution; assay type: cell-based
Procedure: as §1

[14] = test system: Micrococcus luteus ATCC 9341; assay: MIC broth microdilution; assay type: cell-based
Procedure: as §1

[15] = test system: Streptococcus pneumoniae (TCRSP) ATCC 700902; assay: MIC broth microdilution; assay type: cell-based; settings: Streptococcus pneumoniae (TCRSP) ATCC 700902, Gram +; MHB, 35° C., 24 hours
Procedure: as §1

[16] = test system: Streptococcus pneumoniae ATCC 49619; assay: MIC broth microdilution; assay type: cell-based; settings: Streptococcus pneumoniae ATCC 49619, Gram +; MHB, 35° C., 24 hours
Procedure: as §1

[17] = test system: Streptococcus pneumoniae ATCC 700676; assay: MIC broth microdilution; assay type: cell-based; settings: Streptococcus pneumoniae ATCC 700676, Gram +; MHB, 35° C., 24 hours
Procedure: as §1

[18] = test system: Enterococcus faecalis (VRE) ATCC 51299; assay: MIC broth microdilution; assay type: cell-based
Procedure: as §1

[19] = test system: Staphylococcus aureus ATCC 29213; assay: MIC broth microdilution; assay type: cell-based; settings: Staphylococcus aureus ATCC 29213, Gram +; MHB, 35° C., 24 hours
Procedure: as §1

[20] = test system: Streptococcus pneumoniae (PSRSP) ATCC 700671; assay: MIC broth microdilution; assay type: cell-based; settings: Streptococcus pneumoniae (PSRSP) ATCC 700671, Gram +; MHB, 35° C., 24 hours
Procedure: as §1

[21] = test system: Enterococcus faecium ATCC 51559; assay: MBC determination; assay type: cell-based; settings: concentration that kills 99.9%
Procedure: as §1
(§2) MBCs were determined as described by the NCCLS guidelines (cited above).

[22] = test system: Staphylococcus aureus ATCC 29737; assay: MBC determination; assay type: cell-based; settings: concentration that kills 99.9%
Procedure: as §1, §2

[23] = test system: Micrococcus luteus ATCC 9341; assay: MBC determination; assay type: cell-based; settings: concentration that kills 99.9%
Procedure: as §1, §2

[24] = test system: Enterococcus faecalis (VRE) ATCC 51299; assay: MBC determination; assay type: cell-based; settings: concentration that kills 99.9%
Procedure: as §1, §2

B1: Lento: Bacillus licheniformis polypeptide having amino acids 1-85 of SEQ ID NO: 2, purified from ATCC 14580 fermentation broth (protein)
chain: MKNHLYEKKKRKPLTRTIKATLAVLTMSIALVGGATVPSFAWVNPGYHYQYPSEGGTWRYGFVNAGLRSEYNHPTKVHGSTVQKL
modifications: Bacillus licheniformis ATCC 14580
**Q.** For B1, which MBC [1] is on record?
**A.** The MBC was 1 microgram/ml.

**Q.** And the “denaturation temperature (DSC)” value ([2]; 10 mM citric acid, 50 mM sodium chloride, pH 2.5)?
**A.** The value was 55 °C.

**Q.** And the “denaturation temperature (DSC)” value ([2]; 10 mM sodium acetate, 50 mM NaCl, pH 4.0)?
**A.** Its value is 69 °C.

**Q.** And the “denaturation temperature (DSC)” value ([2]; 10 mM sodium phosphate, 50 mM NaCl, pH 7.0)?
**A.** The value was 60 °C.

**Q.** And the “antimicrobial effect on gram-negative bacterial strains” value [3]?
**A.** Its value is “uncertain if any antimicrobial effect”.

**Q.** And the “antimicrobial effect on gram-positive bacterial strains” value [4]?
**A.** Its value is “pronounced antimicrobial effect”.

**Q.** And the MIC [5]?
**A.** Its MIC is greater than 256 microgram/ml.

**Q.** And the “bactericidal (MBC within four fold of the MIC)” value [6]?
**A.** Its value is “bactericidal”.

**Q.** And the MIC [7]?
**A.** Its MIC is 128 microgram/ml.

**Q.** What about the MIC [8] of the same molecule?
**A.** Its MIC is 2 microgram/ml.

**Q.** And the MIC ([9]; Enterococcus faecium ATCC 51559, Gram +, MHB, 35° C., 24 hours)?
**A.** The MIC was 4 microgram/ml.

**Q.** And the MIC ([9]; Table 2 (MBC results), Enterococcus faecium ATCC 51559)?
**A.** Its MIC is 4 microgram/ml.

**Q.** And the MIC [10]?
**A.** The MIC was 0.125 microgram/ml.

**Q.** And the MBC ([11]; Staphylococcus aureus ATCC 29737, Gram +, MHB, 35° C., 24 hours)?
**A.** The MBC was 8-32 microgram/ml.

**Q.** What about the MBC ([11]; Table 2 (MBC results), Staphylococcus aureus ATCC 29737) of the same molecule?
**A.** Its MBC is 32 microgram/ml.

**Q.** And the MIC [12]?
**A.** Its MIC is greater than 256 microgram/ml.

**Q.** What about the MIC ([13]; Bacillus cereus ATCC 4342, Gram +, MHB, 35° C., 24 hours) of the same molecule?
**A.** The MIC was 0.5-1 microgram/ml.

**Q.** What about the MIC ([13]; Table 2 (MBC results), Bacillus cereus ATCC 4342) of the same molecule?
**A.** Its MIC is 1 microgram/ml.

**Q.** What about the MBC ([14]; Micrococcus luteus ATCC 9341, Gram +, MHB, 35° C., 24 hours) of the same molecule?
**A.** Its MBC is 8 microgram/ml.

**Q.** And the MBC ([14]; Table 2 (MBC results), Micrococcus luteus ATCC 9341)?
**A.** The MBC was 8 microgram/ml.

**Q.** And the MIC [15]?
**A.** The MIC was 4-8 microgram/ml.

**Q.** And the MIC [16]?
**A.** Its MIC is 1-2 microgram/ml.

**Q.** What about the MIC [17] of the same molecule?
**A.** Its MIC is 4 microgram/ml.

**Q.** And the MIC ([18]; Enterococcus faecalis (VRE) ATCC 51299, Gram +, MHB, 35° C., 24 hours)?
**A.** Its MIC is 8 microgram/ml.

**Q.** And the MIC ([18]; Table 2 (MBC results), Enterococcus faecalis (VRE) ATCC 51299)?
**A.** The MIC was 64 microgram/ml.

**Q.** And the MIC [19]?
**A.** The MIC was 64 microgram/ml.

**Q.** What about the MIC [20] of the same molecule?
**A.** The MIC was 2 microgram/ml.

**Q.** And the MBC [21]?
**A.** Its MBC is greater than 64 microgram/ml.

**Q.** What about the MBC [22] of the same molecule?
**A.** The MBC was 32 microgram/ml.

**Q.** What about the MBC [23] of the same molecule?
**A.** The MBC was 8 microgram/ml.

**Q.** What about the MBC [24] of the same molecule?
**A.** Its MBC is 64 microgram/ml.
